Data from patent publication US10640563B2, “Anti-B7-H3 antibodies and antibody drug conjugates” (AbbVie Inc., priority 2016, dated 2020).

B1: chAb14-CZ (conjugate)
VH: EVKLVESGGGLVKPGGSLKLSCAASGFTFSSYGMSWVRQTPEKRLEWVATISGGGTNTYYPDSVEGRFTISRDNAKNFLYLQMSSLRSEDTALYYCARHYGSQTMDYWGQGTSVTVSS
VL: DIQMTQSPASLSASVGETVTITCRTSGNIHNYLTWYQQKQGKSPQLLVYNAKTLADGVPSRFSGSGSGTQFSLKINSLQPEDFGSYYCQHFWSIMWTFGGGTKLEIK
B2: chAb6-CZ (conjugate)
VH: QVQLQQSGAELMKPGASVKISCKATGYTFSRYWIEWVKQRPGHGLEWIGEILPGSGSTNYNEKFKGKATFTADTSSNTAYMQVSSLTSEDSAVHYCARRGYGYVPYALDYWGQGTSVTVSS
VL: EIQMTQTTSSLSASLGDRVTISCRASQDISNSLNWYQQKPDGTVNLLIYYTSRLYSGVPSRFSGSGSGTDYSLTISNLEQEDIATYFCQQGNTLPYTFGGGTKLEIK
B3: chAb16-CZ (conjugate)
VH: EVKLLESGGGLVQPGGSLKLSCAASGFDFSRYWMSWVRQAPGKGLEWIGEINPDSSTINYTPSLKDKFIISRDNAKNTLYLQMSKVRSEDTALYYCARPGFGNYIYAMDYWGQGTSVTVSS
VL: DIQMTQTTSSLSASLGDRVTINCRASQDISNFLNWYQQKPDGTVKLLIYYTSRLYLGVPSRFSGSGSGTDYSLTISNLEQEDIATYFCQQGNTLPPTFGGGTKLEIK
B4: chAb18-CZ (conjugate)
VH: QVQLQQSAAELARPGASVKMSCKASGYSFTSYTIHWVKQRPGQGLEWIGYINPNSRNTDYNQKFKDETTLTADRSSSTAYMQLISLTSEDSAVYYCARYSGSTPYWYFDVWGAGTTVTVSS
VL: QIVLTQSPAILSASPGEKVTMTCRASSSVSYMNWYQQKPGSSPKPWIYATSNLASGVPARFSVSVSGTSHSLTISRVEAEDAATYYCQQWSSNPLTFGAGTKLELK
B5: chAb13-CZ (conjugate)
VH: DVQLQESGPDLVKPSQSLSLTCTVTGYSITSGYSWHWIRQFPGNKLEWMGYIHSSGSTNYNPSLKSRISINRDTSKNQFFLQLNSVTTEDTATYYCAGYDDYFEYWGQGTTLTVSS
VL: DIVMTQSQKFMSTSVGDRVSVTCKASQNVGFNVAWYQQKPGQSPKALIYSASYRYSGVPDRFTGSGSGTDFTLTISNVQSEDLAEYFCQQYNSYPFTFGSGTKLEIK
B6: chAb2-CZ (conjugate)
VH: QVQLQQPGAELVKPGASVKLSCKASGYTFTSYWMHWVKQRPGQGLEWIGMIHPDSGTTNYNEKFRSKATLTVDKSSSTAYMQLSSLTSEDSAVYYCAVYYGSTYWYFDVWGTGTTVTVSS
VL: DVVMTQTPLSLPVSLGDQAYISCRSSQSLVHINGNTYLHWYRQKPGQSPKLLIYKVSNRFSGVPDRFSGSGSGTDFTLKISRVEAEDLGVYFCSQSTHFPFTFGSGTKLEIK
B7: chAb3-CZ (conjugate)
VH: QVQLQQPGAELVKPGASVKLSCKASGYTFSSYWMHWVKQRPGQGLEWIGLIHPDSGSTNYNEMFKNKATLTVDRSSSTAYVQLSSLTSEDSAVYFCAGGGRLYFDYWGQGTTLTVSS
VL: DVVMTQTPLSLPVSLGDQASISCRSSQSLVHSNGDTYLRWYLQKPGQSPKLLIYKVSNRFSGVPDRFSGSGSGTDFTLKITRVEAEDLGVYFCSQSTHVPYTFGGGTKLEIK
modifications: drug conjugate; Synthetic chAb3 VH amino acid sequence; Synthetic chAb3 VL amino acid sequence

Legend:
[1] = test system: NCI-H146 xenograft; experiment: NCI-H146 small cell lung cancer xenograft efficacy; format: in vivo, mouse; details: NCI-H146 xenograft in SCID/bg mice; 10 mg/kg IP QDx1
Method: Antibody MSL109 (an IgG1 antibody that binds to cytomegalovirus (CMV) glycoprotein H) was used as a control, both as a naked antibody and as an ADC (conjugated to the same synthon (CZ) as the chAb3, chAb18, and chAb13 antibodies). MSL109 is an isotype matched non-targeting control. The methods of this xenograft assay are described below.
NCI-H146 cells, NCI-1650 cells, and EBC-1 cells were obtained from the American Type Culture Collection (ATCC, Manassas, Va.). The cells were cultured as monolayers in RPMI-1640 (NCI-H146, NCI-H1650) or MEM (EBC-1) culture media (Invitrogen, Carlsbad, Calif.) that was supplemented with 10% Fetal Bovine Serum (FBS, Hyclone, Logan, Utah). To generate xenografts, 5×10^6 viable cells were inoculated subcutaneously into the right flank of immune deficient female SCID/bg mice (Charles River Laboratories, Wilmington, Mass.) respectively. The injection volume was 0.2 mL and composed of a 1:1 mixture of S MEM and Matrigel (BD, Franklin Lakes, N.J.). Tumors were size matched at approximately 200 mm^3. Antibodies and conjugates were formulated in 0.9% sodium chloride for injection and injected intraperitoneally. […] Therapy began within 24 hours after size matching of the tumors. Mice weighed approximately 22 g at the onset of therapy. Tumor volume was estimated two to three times weekly. Measurements of the length (L) and width (W) of the tumor were taken via electronic caliper and the volume was calculated according to the following equation: V=L×W^2/2. Mice were euthanized when tumor volume reached 3,000 mm3 or skin ulcerations occurred. Eight mice were housed per cage. Food and water were available ad libitum. Mice were acclimated to the animal facilities for a period of at least one week prior to commencement of experiments. Animals were tested in the light phase of a 12-hour light: 12-hour dark schedule (lights on at 06:00 hours). As described above, human IgG control antibody (MSL109) was used as a negative control agent.
To refer to efficacy of therapeutic agents, parameters of amplitude (TGImax), durability (TGD) of therapeutic response are used. TGImax is the maximum tumor growth inhibition during the experiment. Tumor growth inhibition is calculated by 100*(1−Tv/Cv) where Tv and Cv are the mean tumor volumes of the treated and control groups, respectively. TGD or tumor growth delay is the extended time of a treated tumor needed to reach a volume of 1 cm^3 relative to the control group. TGD is calculated by 100*(Tt/Ct−1) where Tt and Ct are the median time periods to reach 1 cm^3 of the treated and control groups, respectively.

[2] = test system: HCC38 (breast cancer) cells; experiment: In vitro cell viability assay (CellTiter-Glo), HCC38; format: cell-based, human; details: ADC with synthon CZ; HCC38 breast cancer cells; viability after 5 days; read-out: Cytotoxicity (HCC38 cell line IC50nM)
Method: (§1) Nine anti-B7-H3 chimeric antibodies were conjugated to the Bcl-xL inhibiting (Bcl-xLi) synthon CZ (Example 2.1) using conjugation Method A described below. The resulting ADCs (anti-B7-H3 antibodies conjugated to synthon CZ) were tested for binding to cell surface human B7-H3 by FACS (as described in Example 6) and for cell cytotoxicity in cell lines expressing B7-H3. […] Table 6 provides cell surface binding and cytotoxicity activity of anti-B7-H3 chimera ADCs against breast cancer cell HCC38 expressing human B7-H3.
The tumor cell lines HCC38 (breast cancer), NCI-H1650 (NSCLC) and NCI-H847 (small cell lung cancer cell line) were obtained from American Type Culture Collection (ATCC). Cells were grown in 96-well culture plates using recommended growth media overnight at a density of 5×10^3 (HCC38) or 20×10^3 (NCI-H847) or 40×10^3 (NCI-H1650) per well. The following day, treatments were added in fresh media to triplicate wells. Cellular viability was determined 5 days later using the CellTiter-Glo Luminescent Cell Viability Assay kit (Promega), as directed in the manufacturer's protocol. Cell viability was assessed as percentage of control untreated cells.

[3] = Size exclusion chromatography, % aggregate of ADC; format: physicochemical; details: ADC with synthon CZ, conjugation Method A
Method: The DAR and percentage aggregation of ADCs synthesized were determined by LC-MS and size exclusion chromatography (SEC), respectively.
Size exclusion chromatography was performed using a Shodex KW802.5 column in 0.2 M potassium phosphate pH 6.2 with 0.25 mM potassium chloride and 15% IPA at a flow rate of 0.75 ml/min. The peak area absorbance at 280 nm was determined for each of the high molecular weight and monomeric eluents by integration of the area under the curve. The % aggregate fraction of the conjugate sample was determined by dividing the peak area absorbance at 280 nm for the high molecular weight eluent by the sum of the peak area absorbances at […] of the high molecular weight and monomeric eluents multiplied by 100%.

[4] = Observation after conjugation to synthon (Method A); format: physicochemical; details: after conjugation to Bcl-xLi synthon CZ
Method: as §1
A solution of Bond-Breaker™ tris(2-carboxyethyl)phosphine (TCEP) solution (10 mM, 0.017 mL) was added to a solution of antibody (10 mg/mL, 1 mL) preheated to 37° C. The reaction mixture was kept at 37° C. for 1 hour. The solution of reduced antibody was added to a solution of synthon (3.3 mM, 0.160 mL in DMSO) and gently mixed for 30 minutes. The reaction solution was loaded onto a desalting column (PD10, washed with Dulbecco's phosphate-buffered saline [DPBS] 3× before use), followed by DPBS (3 mL). The purified ADC solution was filtered through a 0.2 micron, low protein-binding 13 mm syringe-filter and stored at 4° C.

[5] = test system: HCC38 cell line; experiment: Cell cytotoxicity of ADCs in HCC38 cell line; format: cell-based; details: CZ conjugates
Method: The humanization of chAb18 generated 10 variants (described above in Table 9) that retained binding to human and cyno B7-H3 as assessed by FACS (the method of which is described above in Example 6). These variants were further characterized for binding by SPR and were successfully conjugated to the Bcl-xL inhibitor synthon CZ using Method A (described above) and assessed for cell cytotoxicity as described in Example 7. The parental chAb18 from which the variants were derived was also tested as a comparator. All humanized variants had similar binding properties as assessed by biacore, and retained binding activity to cell surface expressed as conjugates with the CZ synthon. The cytotoxicity of all of the variants as CZ synthons were similar to the chAb18 from which they were derived.
Humanized chAb18 variants were conjugated to the CZ synthon and tested for cytotoxicity in HCC38 cell line.

Molecule	TGD (%) [1] [%]	TGImax (%) [1] [%]	IC50 [2] [nM]	% agg by SEC [3] [%]	Conjugation observation [4]	IC50 ([5]; Table 10) [nM]	IC50 ([5]; Table 14) [nM]
MSL109: an IgG1 antibody that binds to cytomegalovirus (CMV) glycoprotein H; isotype matched non-targeting control [reference compound]	0	0	–	–	–	–	–
B1	–	–	2.01	1.9	Clear	–	–
B2	–	–	81	0.5	Precipitates	–	–
B3	–	–	21.9	2.3	Precipitates	–	–
B4	100	90	0.28	4.3	Clear	0.28	–
B5	104	81	0.18	8.3	Clear	–	–
B6	–	–	4.77	5.9	Precipitates	–	–
B7	109	87	0.17	6.3	Clear	–	0.17
